One test addresses T1, 人ETA (内皮素受体A) (human, UniProt P25101 21-427).
T1 construct: whole, on cells; The plasmid's ETA construct is not described further; also called CHO-ETA; CHO-ETA-EGFP
T1 sequence (looked up): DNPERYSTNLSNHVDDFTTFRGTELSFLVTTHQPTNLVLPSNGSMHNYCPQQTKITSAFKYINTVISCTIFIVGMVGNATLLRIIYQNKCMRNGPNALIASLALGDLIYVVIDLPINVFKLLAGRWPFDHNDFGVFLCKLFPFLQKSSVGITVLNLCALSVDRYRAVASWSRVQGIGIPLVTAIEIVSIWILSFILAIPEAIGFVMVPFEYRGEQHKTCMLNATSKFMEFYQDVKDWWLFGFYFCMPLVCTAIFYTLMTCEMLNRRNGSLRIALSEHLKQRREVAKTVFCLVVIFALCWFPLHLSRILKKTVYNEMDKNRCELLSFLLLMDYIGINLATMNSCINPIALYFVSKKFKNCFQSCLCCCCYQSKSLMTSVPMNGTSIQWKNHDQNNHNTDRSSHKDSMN
Nature of the test: flow cytometry (FACS) on CHO-ETA cells, anti-human IgG Fc PE secondary. (In general: Flow cytometry measures light scatter and fluorescence of single cells or particles in a stream.)

In another test the target is T2, 人CD3 (human, UniProt P07766 23-207).
T2 construct: whole, on cells; Natural CD3 complex on Jurkat T cells (and CIK cells); also called Jurkat细胞表面人CD3分子
T2 sequence (P07766 23-207): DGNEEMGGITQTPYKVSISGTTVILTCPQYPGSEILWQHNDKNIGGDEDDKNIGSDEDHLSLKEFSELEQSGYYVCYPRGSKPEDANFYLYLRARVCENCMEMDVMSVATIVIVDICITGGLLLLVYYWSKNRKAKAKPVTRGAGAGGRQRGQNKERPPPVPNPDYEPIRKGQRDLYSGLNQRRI
Kind of test: flow cytometry (FACS) on Jurkat cells, anti-human IgG Fc PE secondary.

The values below come from patent CN115490770A (GMAX BIOPHARM HANGZHOU CO LTD, dated 2022).

Usually EC50 stands for the concentration giving half of the maximal effect. A low value points to an effect from little substance.

B1: αETA(L5H5,SEQ NO ID:19+SEQ NO ID:20)/αCD3(L3H3,SEQ NO ID:15+SEQ NO ID:16)双特异性抗体 (bispecific antibody)
chain 1: QVTLKESGPTLVKPTQTLTLTCTFSGFSLTTSGLGVAWIRQPPGKALEWLAHIWSDGDTRYYPALKNRLTITKDTSKNQVVLTMTNMDPVDTATYYCAHMKDDSLYFDNWGQGTLVTVSS
chain 2: EIVLTQSPDFQSVTPKEKVTITCRASQNIGTSIHWYQQKPDQSPKLLIKYASKSISGVPSRFSGSGSGTDFTLTINSLEAEDAATYYCQHSYSFPWTFGQGTKVEIK
chain 3: EAVVTQEPSLTVSPGGTVTLTCRSSTGAVTTSNYANWVQQKPGQAPRGLIGGTNKRAPWTPARFSGSLLGGKAALTLSGAQPEDEAEYYCALWYSNLWVFGGGTKLTVL
chain 4: EVQLVESGGGLVQPGGSLRLSCAASGFTFNTYAMNWVRQAPGKGLEWVGRIRSKYNNYATYYADSVKDRFTISRDDSKNTLYLQMNSLRAEDTAVYYCVRHGNFGNSYVSWFAYWGQGTLVTVSS
For the molecule B1, the EC50 was found to be 3.51 nM in the test with 人ETA (内皮素受体A) and 10.7 nM with 人CD3.
